Experiment [1] has as its target S. cerevisiae Nsp1 of the short scNup49-Nup57-Nsp1 complex (S. cerevisiae) (UniProt P14907). Kind of experiment: SEC. On the technique in general: In gel filtration, larger molecules generally elute earlier.
Experiment [2] has the same target. Nature of the experiment: AUC.
Experiment [3] addresses S. cerevisiae Nup57 of the short scNup49-Nup57-Nsp1 complex (S. cerevisiae) (UniProt P48837). Nature of the experiment: SEC.
Experiment [4] has the same target. Kind of experiment: AUC.

S. cerevisiae Nup57 of the short scNup49-Nup57-Nsp1 complex (S. cerevisiae), sequence (P48837 whole entry, one chain of several): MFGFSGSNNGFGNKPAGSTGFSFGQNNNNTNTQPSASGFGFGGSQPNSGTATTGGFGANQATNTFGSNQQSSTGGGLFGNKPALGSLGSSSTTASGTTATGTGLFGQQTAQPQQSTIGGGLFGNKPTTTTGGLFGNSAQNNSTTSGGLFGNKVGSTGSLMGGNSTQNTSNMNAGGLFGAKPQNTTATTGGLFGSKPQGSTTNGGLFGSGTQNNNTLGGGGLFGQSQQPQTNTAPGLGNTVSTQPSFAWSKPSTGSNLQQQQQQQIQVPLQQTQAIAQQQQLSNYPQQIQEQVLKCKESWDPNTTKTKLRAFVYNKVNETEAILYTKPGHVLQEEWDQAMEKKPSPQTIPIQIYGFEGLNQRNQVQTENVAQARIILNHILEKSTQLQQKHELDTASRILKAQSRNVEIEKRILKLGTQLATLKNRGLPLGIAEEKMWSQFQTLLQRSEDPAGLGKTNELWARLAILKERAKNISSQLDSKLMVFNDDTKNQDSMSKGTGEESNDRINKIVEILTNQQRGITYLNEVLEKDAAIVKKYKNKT

With “S. cerevisiae Nup57 of the short scNup49-Nup57-Nsp1 complex (from UniProt P48837 1-541) (domain or fragment)”, the stoichiometry N in experiment [1] and in experiment [2] was 1 in each case.
“S. cerevisiae Nup49 of the short scNup49-Nup57-Nsp1 complex (from UniProt Q02199 1-472) (domain or fragment)”: the stoichiometry N in experiment [3] and in experiment [4] was 1 throughout.

One may read the stoichiometry N as the number of molecules, sites or subunits per partner or assembly.
